Laboratory results as given in patent US20150232562A1 (Ablynx, published 2015).
Positions count from the first letter of the chain named.

B1: 13A8 (VHH)
VHH: EVQLVESGGGLVQPGGSLRLSCAASGLGIAFSRRTMAWYRQAPGKQRDWVATIAGDGSTVYADSMKGRFTISRDNAENTVYLQMNSLKPEDTAVYYCWDVNRDYWGQGTQVTVSS
notes: C-term myc-His6 tag
B2: 17F5 (VHH)
VHH: B1 VHH with E77K, M84V, V100T, R102G
notes: C-term myc-His6 tag
B3: 27D3 (VHH)
VHH: B1 VHH with V5M
notes: C-term myc-His6 tag
B4: 15A4 (VHH)
VHH: B1 VHH with E77K, M84I
notes: C-term myc-His6 tag
B5: 17G5 (VHH)
VHH: EVQLVESGGGLVQPGGSLRLSCAASGIGIAFSSRTMAWYRQAPGKQRDWVATIGSGGTTNYADSVKGRFTISRDNAKNTVYLQMNSLKPEDTAVYYCRDINRDYWGQGTQVTVSS
notes: C-term myc-His6 tag
B6: 15G4 (VHH)
VHH: EVQLVESGGGLVQAGGSLRLSCVASGIPFRSRTMAWYRQAPGKTRDWVATIGTHGTPLYADSVKGRFTVSRDNAKNTLYLQMNSLKPEDTAVYYCWDVNGDYWGQGTQVTVSS
notes: C-term myc-His6 tag
B7: 13A4 (VHH)
VHH: EVQLVESGGGLVQAGGSLRLSCVASKMTFMRYTMGWYRQAPGKQRDLVASIDSSGGTNYADSVKGRFTISRDNAKNTVYLEMNSLKPEDTGVYYCNGRWDIVGAIWWGQGTQVTVSS
notes: C-term myc-His6 tag
B8: 27H4 (VHH)
VHH: B7 VHH with S53A
notes: C-term myc-His6 tag
B9: 27G5 (VHH)
VHH: EVQLVESGGGLVQPGGSLRLSCVASRIPASIRTMAWYRQTPGNQRDWLATIGSSGTPAYADSVKGRFTVSRDNAKNTVYLQMNSLKPEDTAVYYCRDVNGDYWGQGTQVTVSS
notes: C-term myc-His6 tag
B10: 29E9 (VHH)
VHH: B9 VHH
notes: C-term myc-His6 tag
B11: 15D8 (VHH)
VHH: B9 VHH with R19K, R26T
notes: C-term myc-His6 tag
B12: 13A9 (VHH)
VHH: B9 VHH with P14A, T40A, N43K, L48V, S53T, S54G, V63F, K75N, N76H
notes: C-term myc-His6 tag
B13: 17C3 (VHH)
VHH: EVQLVESGGGLVQAGGSLRLSCAANGLTFRRYDMGWYRQAPGQQREWVAAISGAGDINYADSVKGRFTMARDNANHTVHLQMNSLKPEDTAVYYCNANWKMLLGVENDYWGQGTQVTVSS
notes: C-term myc-His6 tag
B14: 13D7 (VHH)
VHH: B13 VHH
notes: C-term myc-His6 tag
B15: 15C8 (VHH)
VHH: EVQLVESGGGLVQAGGSLRLSCAASGIAFRIRTMAWYRQAPGKQRDWVATSDSGGTTLYADSVKGRFTVSRDNAENTVYLQMNSLKPEDTAVYYCRDVNRDYWGQGTQVTVSS
notes: C-term myc-His6 tag
B16: 13B12 (VHH)
VHH: B15 VHH with S51I, D52G, G54D, L58I, V69L, D72H
notes: C-term myc-His6 tag
B17: 27C7 (VHH)
VHH: B15 VHH with E75D
notes: C-term myc-His6 tag
B18: 27B5 (VHH)
VHH: B15 VHH with S21P
notes: C-term myc-His6 tag
B19: 27A5 (VHH)
VHH: EVQLVESGGGLVQAGGSLNLSCVASGIPFSTRTMAWYRQPPGNERDWVATIRSGAPVYADSVKGRFTVSRDNAKNTLYLQMNSLEPEDTATYYCWDVNGDIWGQGTPVTVSS
notes: C-term myc-His6 tag
B20: 14A1 (VHH)
VHH: EVQLVESGGGSVQAGGSLRLSCAASERTFSSYGMGWFRQAPGKEREFVATINWSGVTAYADSVKGRFTISRDNAKKTVYLQMNSLKPEDTAVYYCAAEPYGSGSSLMSEYDYWGHGTQVTVSS
notes: C-term myc-His6 tag
B21: 14A2 (VHH)
VHH: B20 VHH with S11L, M107I
notes: C-term myc-His6 tag
B22: 14A4 (VHH)
VHH: B20 VHH with G16S, R19T, A23V, R27G, E46A, T57N, V78A, P99T, S108N, H115Q
notes: C-term myc-His6 tag
B23: 14B10 (VHH)
VHH: B20 VHH with S11L, A24V, S25N, E26S, V63I, K76E, E88D, A91G, P99T, H115Q
notes: C-term myc-His6 tag
B24: 14A12 (VHH)
VHH: B20 VHH with E6K, S11L, M107I
notes: C-term myc-His6 tag
B25: 14C11 (VHH)
VHH: EVQLVESGGGLVQAGGSLRLSCAVNSRTFSSYGMGWFRQAPGKEREFVATINWSGATAYADSIKGRFTISRDNAKETVYLQMNSLKPDDTGVYYCAAETYGSGSSLMSEYDYWGQGTQVTVSS
notes: C-term myc-His6 tag
B26: 14B11 (VHH)
VHH: B20 VHH with S11L, E26G, R27S, A40V, V92R, A96G, A97V, P99T, S108T, H115Q
notes: C-term myc-His6 tag
B27: 14B3 (VHH)
VHH: EVQLVESGGGLVQPGGSLTLSCVASEGTFSSYGMGWFRQAPGKERAFVATINWSGVNAYADSVKGRFTISRDNAKKTAYLQMNSLKPEDTAVYYCAAETYGSGSSLMNEYDYWGQGTQVTVSS
notes: C-term myc-His6 tag
B28: 14B4 (VHH)
VHH: B25 VHH with N25S, T28A, E44D, A56V, D88E
notes: C-term myc-His6 tag
B29: 14C1 (VHH)
VHH: B20 VHH with E26G, R27S, E46A, A97T, P99T, S108N, H115Q
notes: C-term myc-His6 tag
B30: 14C6 (VHH)
VHH: B27 VHH with L11S, P14A, T19R, N57T, A78V, A97T, E98D
notes: C-term myc-His6 tag
B31: 13C4 (VHH)
VHH: EVQLVESGGGLVQAGGSLRLSCVVSGIPSSIRAMAWYRQAPGRQRDWVATIYSPSGSAVYADSVKGRFTISSDNAKSTIYLQMNSLKPDDTAVYYCRDVNREYWGQGTQVTVSS
notes: C-term myc-His6 tag
B32: 46D3 (VHH)
VHH: KVQLVESGGGLVQAGGSLRLSCAASGRTFTEYSMGWFRQAPGKEREFVATISWNYGYTYYSDSVKGRFTVSRDIAENTVYLQMNTLKSEDTAVYYCAAKIGWLSIRGDEYEYWGQGTQVTVSS
notes: C-term myc-His6 tag
B33: 15A6 (VHH)
VHH: EVQLVESGGGLVQAGGSLRLSCVTSRRPASTRTMAWYRQAPGKQRDWVATISSHGLPVYADSVKGRFTVSRDNANNTVYLQMNTLKPEDTAVYYCRDVNADYWGQGTQVTVSS
notes: C-term myc-His6 tag
B34: 17C5 (VHH)
VHH: B33 VHH with Q108P
notes: C-term myc-His6 tag
B35: 15C2 (VHH)
VHH: B33 VHH with P41Q
notes: C-term myc-His6 tag
B36: 17B6 (VHH)
VHH: EVQLVESGGGLVQPGGSLRLSCAASRIPFSTRTMAWYRQAPGKQRDWVATIGTSGPPRYADSVKGRFTVSRDNAKNTVYLQMNSLKAEDTAVYYCWDVNADYWGQGTQVTVSS
notes: C-term myc-His6 tag
B37: 17A10 (VHH)
VHH: EVQLVESGGGLVQAGGSLRLSCVASGIPSIRAIAWYRQAPGKQRDWVATSGTGYGATYDDSVKGRFTLSRDNAKNTVYLQMNSLKPEDTAVYYCRDVNRDYWGQGTQVTVSS
notes: C-term myc-His6 tag
B38: 17F7 (VHH)
VHH: EVQLVESGGGLVQAGGSLRLSCVASGIAQSIRVMAWYRQPPGKQRDWVGTISSDGTANYADSVKGRFTISRDNAKKTMYLQMNSLKPDDTAVYYCRDVNRDYWGQGTQVTVSS
notes: C-term myc-His6 tag
B39: 17C2 (VHH)
VHH: EVQLVESGGGLVQPGGSLRLSCAASGFAFSSYAMSWVRQAPGKGLEWVSAVDSGGGRTDYAHSVKGRFTISRDNAKNTLYLQMSSLKPEDTALYYCTKHVSDSDYTEYDYWGQGTQVTVSS
notes: C-term myc-His6 tag
B40: 15D12 (VHH)
VHH: EVQLVESGGGLVQAGESLRLSCATSGITFKRYVMGWYRQGPGKQRELVATVNDGGTTSYADSVKGRFAISRDNAKNTAYLQMNSLKAEDTAVYYCNAVWKLPRFVDNDYWGQGTQVTVSS
notes: C-term myc-His6 tag

target: T1, recombinant human ErbB2/Fc chimera (human, UniProt P04626 23-652); assay: ELISA, coated ErbB2/Fc
T1 construct: bought from R&D Systems; also called rhErbB2-Fc; rhErb2-Fc; Fc part of the bought chimera not given; not described

binding result	Binder
binds	B1
binds	B2
binds	B3
binds	B4
binds	B5
binds	B6
binds	B7
binds	B8
binds	B9
binds	B10
binds	B11
binds	B12
binds	B13
binds	B14
binds	B15
binds	B16
binds	B17
binds	B18
binds	B19
binds	B20

binding result	Binder
binds	B21
binds	B22
binds	B23
binds	B24
binds	B25
binds	B26
binds	B27
binds	B28
binds	B29
binds	B30
binds	B31
binds	B32
binds	B33
binds	B34
binds	B35
binds	B36
binds	B37
binds	B38
binds	B39
binds	B40
